Residue numbers refer to the chain shown, from its start. Names may count otherwise. Like-named read-outs stand apart in the source and are kept apart here.

Assay in all cases: pull-down
Assay [1] concerns the target T1, purified GST-PDK1 (UniProt Q15118 29-436).
Assay [2] has as its target T1, purified GST-PDK1. The source holds these as a separate data set.
The target in a further assay is T2, purified GST-PDP1 Y381F (UniProt Q9P0J1 72-537, Y381F).
T2 sequence (looked up): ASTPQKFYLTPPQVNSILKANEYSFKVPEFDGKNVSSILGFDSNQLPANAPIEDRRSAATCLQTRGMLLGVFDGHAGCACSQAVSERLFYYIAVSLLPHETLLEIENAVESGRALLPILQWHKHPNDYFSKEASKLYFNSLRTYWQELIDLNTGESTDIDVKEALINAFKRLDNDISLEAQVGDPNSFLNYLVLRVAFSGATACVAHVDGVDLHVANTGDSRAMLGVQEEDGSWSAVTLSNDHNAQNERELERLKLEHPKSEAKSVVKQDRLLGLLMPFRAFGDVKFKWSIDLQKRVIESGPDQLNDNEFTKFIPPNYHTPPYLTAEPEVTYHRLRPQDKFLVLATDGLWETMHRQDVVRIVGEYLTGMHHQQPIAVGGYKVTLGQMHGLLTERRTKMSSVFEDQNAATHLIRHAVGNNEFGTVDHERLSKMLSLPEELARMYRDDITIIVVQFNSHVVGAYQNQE

T1 sequence (Q15118 29-436): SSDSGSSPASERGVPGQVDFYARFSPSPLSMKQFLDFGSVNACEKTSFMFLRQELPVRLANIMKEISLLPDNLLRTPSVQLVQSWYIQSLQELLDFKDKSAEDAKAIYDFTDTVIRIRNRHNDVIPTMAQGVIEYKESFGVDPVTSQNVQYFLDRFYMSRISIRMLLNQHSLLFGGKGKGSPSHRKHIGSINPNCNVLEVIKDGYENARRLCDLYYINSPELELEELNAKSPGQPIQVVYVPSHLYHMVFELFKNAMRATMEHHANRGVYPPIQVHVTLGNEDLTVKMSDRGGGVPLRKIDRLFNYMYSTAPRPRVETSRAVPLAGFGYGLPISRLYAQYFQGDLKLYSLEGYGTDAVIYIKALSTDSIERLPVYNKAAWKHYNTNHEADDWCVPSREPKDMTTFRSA

B1: purified recombinant FLAG-PDHA1 K244R, incubated with NAM+TSA-treated H1299 cell lysates (enzyme, UniProt P08559 30-390, looked up)
chain: FANDATFEIKKCDLHRLEEGPPVTTVLTREDGLKYYRMMQTVRRMELKADQLYKQKIIRGFCHLCDGQEACCVGLEAGINPTDHLITAYRAHGFTFTRGLSVREILAELTGRKGGCAKGKGGSMHMYAKNFYGGNGIVGAQVPLGAGIALACKYNGKDEVCLTLYGDGAANQGQIFEAYNMAALWKLPCIFICENNRYGMGTSVERAAASTDYYRRGDFIPGLRVDGMDILCVREATRFAAAYCRSGKGPILMELQTYRYHGHSMSDPGVSYRTREEIQEVRSKSDPIMLLKDRMVNSNLASVEELKEIDVEVRKEIEDAAQFATADPEPPLEELGYHIYSSDPPFEVRGANQWIKFKSVS
modifications: lysine acetylation by the lysates (K321 is the site that the paper ties to PDK1 binding)
As to B1, in the assay with purified GST-PDK1 [1], the binding result is “binds”.

B2: purified recombinant FLAG-PDHA1 K321R (enzyme, UniProt P08559 30-390, looked up)
chain: B1 chain with R215K, K292R
Consider B2, for which the binding result with purified GST-PDK1 [2] is “binds”.

B3: recombinant FLAG-ACAT1 (enzyme, UniProt P24752 34-427, looked up)
chain: VSKPTLKEVVIVSATRTPIGSFLGSLSLLPATKLGSIAIQGAIEKAGIPKEEVKEAYMGNVLQGGEGQAPTRQAVLGAGLPISTPCTTINKVCASGMKAIMMASQSLMCGHQDVMVAGGMESMSNVPYVMNRGSTPYGGVKLEDLIVKDGLTDVYNKIHMGSCAENTAKKLNIARNEQDAYAINSYTRSKAAWEAGKFGNEVIPVTVTVKGQPDVVVKEDEEYKRVDFSKVPKLKTVFQKENGTVTAANASTLNDGAAALVLMTADAAKRLNVTPLARIVAFADAAVEPIDFPIAPVYAASMVLKDVGLKKEDIAMWEVNEAFSLVVLANIKMLEIDPQKVNINGGAVSLGHPIGMSGARIVGHLTHALKQGEYGLASICNGGGGASAMLIQKL
As for B3, the binding result with purified GST-PDP1 Y381F is on record as “binds”.

(Values after article PMC3943932 (Molecular cell, 2014).)
